Measurements as given in publication PMC12888920, “MMP-9 regulates disulphide isomerase activity of TGM2 to enhance fusion glycoprotein-mediated syncytium formation of respiratory syncytial virus” (Protein & Cell, 2025).

Columns and labels:
[1] = target: DS-Cav1 (RSV F prefusion conformation) (respiratory syncytial virus (strain not stated)) (UniProt P03420); assay: BLI; ForteBio Octet; who was immobilised and buffer not told in the text shown; three biological replicates
[2] = target: purified human MMP-9 (human) (UniProt P14780); assay: as above
Chain of purified human MMP-9 (human) (P14780 20-707): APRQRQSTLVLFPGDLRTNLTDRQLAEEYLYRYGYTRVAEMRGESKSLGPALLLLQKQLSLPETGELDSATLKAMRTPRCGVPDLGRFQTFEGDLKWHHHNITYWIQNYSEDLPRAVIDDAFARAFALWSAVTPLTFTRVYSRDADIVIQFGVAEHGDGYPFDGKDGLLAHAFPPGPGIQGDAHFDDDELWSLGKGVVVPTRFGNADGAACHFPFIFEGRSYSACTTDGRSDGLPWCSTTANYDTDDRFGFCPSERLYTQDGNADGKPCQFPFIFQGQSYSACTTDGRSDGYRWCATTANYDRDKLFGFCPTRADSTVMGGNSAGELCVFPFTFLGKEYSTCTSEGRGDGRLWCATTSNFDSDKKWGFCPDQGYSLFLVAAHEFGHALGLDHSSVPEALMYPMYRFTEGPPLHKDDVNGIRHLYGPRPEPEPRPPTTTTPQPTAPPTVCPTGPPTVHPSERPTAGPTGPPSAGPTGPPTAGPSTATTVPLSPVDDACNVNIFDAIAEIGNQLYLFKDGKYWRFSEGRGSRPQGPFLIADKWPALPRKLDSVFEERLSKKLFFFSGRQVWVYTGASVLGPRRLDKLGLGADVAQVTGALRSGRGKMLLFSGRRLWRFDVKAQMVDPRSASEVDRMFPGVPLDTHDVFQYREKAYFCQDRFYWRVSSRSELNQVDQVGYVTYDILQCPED

Chain of purified human TGM2 (transglutaminase 2) (P21980 whole entry): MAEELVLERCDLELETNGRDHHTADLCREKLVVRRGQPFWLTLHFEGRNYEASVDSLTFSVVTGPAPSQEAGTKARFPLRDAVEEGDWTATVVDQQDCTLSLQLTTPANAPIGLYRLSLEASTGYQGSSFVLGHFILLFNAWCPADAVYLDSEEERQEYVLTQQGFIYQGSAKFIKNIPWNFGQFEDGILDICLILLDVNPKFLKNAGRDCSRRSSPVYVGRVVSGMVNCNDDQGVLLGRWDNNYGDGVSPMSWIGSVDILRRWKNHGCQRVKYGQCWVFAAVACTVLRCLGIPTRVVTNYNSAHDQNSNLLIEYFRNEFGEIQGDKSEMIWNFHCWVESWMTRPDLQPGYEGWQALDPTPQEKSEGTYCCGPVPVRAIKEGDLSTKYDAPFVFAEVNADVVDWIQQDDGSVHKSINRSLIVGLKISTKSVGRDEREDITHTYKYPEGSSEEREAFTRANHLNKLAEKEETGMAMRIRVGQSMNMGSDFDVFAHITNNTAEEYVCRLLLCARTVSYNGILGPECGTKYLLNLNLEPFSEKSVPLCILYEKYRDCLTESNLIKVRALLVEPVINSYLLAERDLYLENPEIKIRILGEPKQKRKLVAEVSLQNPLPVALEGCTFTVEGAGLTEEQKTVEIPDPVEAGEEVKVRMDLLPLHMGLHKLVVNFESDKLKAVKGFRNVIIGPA

| Substance | Kd [1] | Kd [2] |
| --- | --- | --- |
| purified human TGM2 (transglutaminase 2) (from UniProt P21980 1-687) (enzyme) | 6.31 µM | – |
| DS-Cav1 (RSV F prefusion conformation) (from UniProt P03420 26-574) (natural protein) | – | 0.146 µM |
